Biological target: T1, CesT (residues 1-156), 6xHis-tagged, wild type (enteropathogenic E. coli (EPEC) O127:H6 …, UniProt P21244 1-156)
T1 construct: source: E. coli BL21(DE3), purified (Ni-NTA, gel filtration); not shown: His6, N-terminal, kept
Experiment: SPR
Conditions: both partners purified

T1 sequence (P21244 whole entry, the tested form may be a part): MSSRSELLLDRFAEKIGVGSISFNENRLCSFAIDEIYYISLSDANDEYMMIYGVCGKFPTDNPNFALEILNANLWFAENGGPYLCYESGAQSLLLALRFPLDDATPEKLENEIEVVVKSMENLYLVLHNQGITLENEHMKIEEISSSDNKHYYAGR

B1: CsrA (residues 1-61), GST tag removed (natural protein)
chain: not shown
notes: also called WT CsrA; native CsrA
- KD of the first ligand binding site in CsrA (Bivalent-Analyte model): ~148 nM

From paper PMC5864733 (Nature Communications, 2018)
